# Test: soluble on expression in E. coli; label from the status in PepcDB or PDB records
row,Sequence,soluble on expression in E. coli
1,MMKLRIEIDGNLEETEIVIKTPTLTDEIADLQRLLQESKAPRLTFYKGTGEYYLDLSEILFFETEGSKIYAHNQKEAYEVRLKLYELESILPRYFNRVSKSTIANIRQIYSVDKSFSGTGTISFYQTHKEVHVSRHYQSLLKENLRNMR,not soluble
2,MGSDKIHHHHHHMDTLTRIRAFIDVVEAEGFSAAARKTGRSKALLSKYVRELEDELGALLLNRTTRQFSMTEAGHTYYRSAADILKEIDNLADLVRENNVGISGKIRITVPRSFTDAEVGQSLIDFALQHPDLSIEIVAEDRFVDLIEEGFDLAIRVTKLEDSGMIARKLADFRSYACASPVFLEKYGPLTHPQDLSKVPVLIDTNTRGHNSLRLRQPDGEAFTVNISGPLEVNSPQTTLRGALSGLGIALLPDFVARRHIESGALISIFEDYMPSGSGIYAVYPHRRYLPAKVRALVDFMHNWFKRNGTCQPKQGTPPSE,not soluble
3,MGSDKIHHHHHHMTNVIIEKISAKEVFKGAKIKVMITTMTNISIGYDIIEVNNPEEAIADVENVIAPELIGYPATDIDFIDSLICETSVNNPTVAMGISISVARAASNSLDIPLFKFLGGALTTELPIVASGILVDKDKNELIPIVMADSIEDIVNLYLKLTDVLSHDYSIVNIDGAYTCKDIFNEIPKIRNLIDEIKEDEDLDILLGLSSKKETVKDKDLSQIDYLEVEEPVEFDGFLCTDSIYEESDFVKVFPYEMGTITEMYYYINYIMDKGLYPVIFGNNSSFAHIAVSFKVPFLRPKLSSNVLNEVWNIERTIMNPNIRRF,not soluble
4,MGSDKIHHHHHHMSCSHEHESLLVTSPNKSAQAVADALEKHPITFSLPQQFYSDADVFQVEMEQIFYKEWLFVGITGEIPDNGNFITLDIGDNPITVIRDQNGEVRAFHNTCRHRGSKICLVKQGKVPKLVCPYHQWTYELDGNLLFAGTEMGDDFDKNDYGLHKVNCRVAGGYIFVSLSENPTNIDGFFDDLTHYLEPYDLDNCKVAVESTLIEDANWKLVIENNRECYHCSGNHPELLNTLLEWDDTEDPRASDEFKAQVAAKQAMWEAEGIPYKHVSHGHGLRNRIVRMPLLEGTVSMTIDGKAGCKKLMGRIKNPDLGSMRILHLPNSWSHAMGDHLIAFQVIPLGAQKTQVTTKWIVHKDAVEGVDYDVAQLRQVWDATNVQDRTLAENNQKGINSKAYQPGPYSTTFEFGVVNFIDWFSHTMQSNIKASAEKS,not soluble
5,AKTEQQIADIVNRTITPLMQEQAIPGMAVAIIYEGKPYYFTWGKADIANNHPVTQQTLFELGSVSKTFNGVLGGDAIARGEIKLSDPVTKYWPELTGKQWRGISLLHLATYTAGGLPLQIPDDITDKAALLRFYQNWQPQWTPGAKRLYANSSIGLFGALAVKPSGMSYEEAMTRRVLQPLKLAHTWITVPQSEQKNYAWGYREGKPVHVSPGQLDAEAYGVKSSVIDMARWVQANMDASHVQEKTLQQGIELAQSRYWRIGDMYQGLGWEMLNWPLKADSIINGSDSKVALAALPAVEVNPPVPAVKASWVHKTGSTGGFGSYVAFVPEKNLGIVMLANKSYPNPVRVEAAWRILEKLQ,soluble
6,MGSDKIHHHHHHMAVNRFRLENGKEELALYQIQLLKDQSHNENEEDKVSSSSFRQRILGNLLQPPNERPELPSGLYVLGLTGISGSGKSSVAQRLKNLGAYIIDSDHLGHRAYAPGGPAYQPVVEAFGTDILHKDGTINRKVLGSRVFGNKKQMKILTDIVWPVIAKLAREEMDVAVAKGKTLCVIDAAMLLEAGWQSMVHEVWTVVIPETEAVRRIVERDGLSEAAAQSRLQSQMSGQQLVEQSNVVLSTLWESHVTQSQVEKAWNLLQKRLPKAYQTRN,soluble
7,MHHHHHHSSGVDLGTENLYFQSMASSHLNKGIKQVYMSLPQGEKVQAMYIWIDGTGEGLRCKTRTLDSEPKCVEELPEWNFDGSSTLQSEGSNSDMYLVPAAMFRDPFRKDPNKLVLCEVFKYNRRPAETNLRHTCKRIMDMVSNQHPWFGMEQEYTLMGTDGHPFGWPSNGFPGPQGPYYCGVGADRAYGRDIVEAHYRACLYAGVKIAGTNAEVMPAQWEFQIGPCEGISMGDHLWVARFILHRVCEDFGVIATFDPKPIPGNWNGAGCHTNFSTKAMREENGLKYIEEAIEKLSKRHQYHIRAYDPKGGLDNARRLTGFHETSNINDFSAGVANRSASIRIPRTVGQEKKGYFEDRRPSANCDPFSVTEALIRTCLLNETG,soluble
8,MSCYYYCKYCKEYKNKHHDCCKNTSKCHDNKDNLVRASAFRARNTVNQNVPANTFVKVLFQNEQFDLANEYNPATSIFMPKTKGVYSIIGTIGFFPNDPTLNYRARVEIRVNGNAAIAIDNDFFGPISFGNVVSVSTIVQLNAGDEVEIYAQSSIDGVLSPLEDGAHFEAARFPSPIKLEHHHHHH,not soluble
9,GMANKVEHRLSEQQMKALTDLPLVFLITHDQSKSWPITHAISWVYAKDETTIRFAIEADSLLVKTLADHPVFTLIFFADQSTYSLTCTDVAAWETTARLPLKVALYEGQIKEVRDILFYGAAVSDRPRVYKTYDEAAAMQLDQQIQDILKG,soluble
10,MGHPETTKFHHLSTKVTISVPEEECYGSTNRTSFNGEDIEEVLEAILKSGMKLKMEKSNFGHAKIKFLGYIVLEEGIQTDPKTIKAIAKFPQPENVTDVRKFIGFALY,not soluble
11,MQQPVINQQPGYNPQGMNPVQQFEMHQQQHQQAITTQPGVFVQPAPGSVWMPMPPAIQGVPTGLEYLTYLDTIMVHQIKELIEIVTDWETKNKYVLKNANGEQCYYAFEESGCCERQCCGPQRGFVMHIVDNFKREVLTIKREFKCCGGGCCGCLACIGCCQQECIIETPSMGVLGIIRQRCGCMSSNYDIMDGDGNVIFQIDGPCCCMLCGCQDKEFPIKTANNGTVVGAITKKWGGCFREAFTDADTFAVNFPGDLDVKLKGVLIGATFLIDFMEFEQQSQNRNNGGAYYSSS,not soluble
12,MGSDKIHHHHHHMLVEHDISDVRVGMYIIEITVPKNKFRLAKQGWLDNERIIDALKSKSVEKVLIDASKTRIVADQNATTPSPSVATPSVTTKKGTKTSSESVKPKAASVRTKYQFNQEVIKAKQVFAESKAIQAKLFHNAQRGLPLEMESVCKITSESTDLIFNNPNALACVLNIRNKDEYLLEHSVSVSILMTMFALYLKIDRDIVNQLAIGAFLHDVGKIMVPDNILNKPGKLTDDEFFVMKSHARHSVSIMRKTPGISAISMEVAGQHHEKLNGKGYPLGLKGDKISLYGRMSSICDIFDALTATRCYKQGYPQVKCFGILRKLAENNELDIDLVDKFIKCMGVYPVGAVVQLDSNRLAIVESHNIADPIRPNVRPFYRLDPKLFEKGLDVDLSSAADEQIVKCVRADDFELDMQQIIEFLAQEA,not soluble
13,MTFVPLNPIPLKDRTSMIFLQYGQIDVLDGAFVLIDKTGIRTHIPVGSVACIMLEPGTRVSHAAVRLASTVGTLLVWVGEAGVRVYSSGQPGGARADKLLYQAKLALDDDLRLKVVRKMYELRFREPPPARRSVEQLRGIEGSRVRATYALLAKQYGVKWHGRNYDPKDWEKGDVVNRCISAATSCLYGISEAAILAAGYAPAIGFIHSGKPLSFVYDIADIIKFESVVPKAFEIAARHPAEPDKEVRLACRDIFRSSKLTGKLIPLIEEVLAAGEIEPPQPAPDMLPPAIPEPESLGDSGHRGHG,not soluble
14,MGHHHHHHSHLPAIRTLQSLAFHPNVTFIIGENGTGKSTLLEGIAIALGFNAEGGTKNFRFSTNDSHSSLHEYLRISKSFNTPSDGFFLRAESFYNVASYIDEIDADLEARGNPVIDSYGGISLHEQSHGESFFSLFMNRFSGQGLYILDEPEAALSPMRQLSMLIRMHELAEQGSQFVIATHSPILMAYPESTIYSLTQEG,not soluble
15,MSVEPTSVDPSPDKSAPANASGRADASARPSTGESARPSGGETPEVLRPHAEVTFAAELAALAAQDDRPRPVRWRLSPWAVATYLLGGTLPDGTVITPKYVGPRRIVEVAVTTLATDRALLLLGVPGTAKTWVSEHLAAAVSGDSTLLVQGTAGTPEEAIRYGWNYAQLLAHGPSRDALVPSPVMRAMADGMTARVEELTRVPADVQDTLITILSEKTLPIPELGQEVQAVRGFNLIATANDRDRGVNELSSALRRRFNTVVLPLPESADAEVDIVSRRVDQIGRSLDLPAVPDGVDEIRRVVTVFRELRDGVTTDGRTKLKSPSGTLSTAEAISVVTNGLALAAHFGDGVLRASDVAAGILGAVVRDPAADRVIWQEYLEAVVRERDGWMDFYRACREVSALEHHHHHH,soluble
16,MALEFTTLPQLYAHDYDTVIDVRSPAEFAEDHLPGAINLPVLDNEERARVGTIYKQQSPFLARKLGAALVFRNAASHVEQSLSHHEGHWRPLVYCWRGGQRSGSFTWMLQQIGWRAEVVSGGYRTYRRLVNRYLYEDPLPHRLVALDGFTGTAKTEILARLPALGVQMLDLEALANHRGSLLGARPGGQPEQKAFESALAAALCRLDPTRPVVVEAESSRIGERILPPSLWAALCAAPRIEIEAPVAARSAYLTAAYDDILSDAETLTARLDPLRYHRGHAVVEGWLALVAAGDKHGVTRALMEQHYDPAYRKSRASHAVQVAARLRSDTLDHAGIDTLTAQVAAVLKAL,not soluble
17,PDVKCVCCTEGKECACFGQDCCVTGECCKDGTCCGI,soluble
18,MGSDKIHHHHHHMADKPFRLVTRSDFDGLVCATLLKELALIDEITFVHPKDMQDGQIPVTERDITTNLPYVEGVHLCFDHHLSETIRVGKKANHIIDPLAPSAARVVYNYFGGKARFPRIPDDMMDAVDKGDSAQYNMEEVLHPGGWELLNFLMDARTGLGRFREFRIPNYQLMMELIDYCRDHAIEDILDLPDVSERVDLYREHEPRFKEQLKRCSTVHGNLVVLDLRDEDPIWAGNRFMIYALYPETNISIHVLWGRERRNTVFAVGKSIFNRSSNTNIGELMLGYGGGGHHAAGTCQVDNAQAADVLARLIARITEDG,not soluble
19,MSLTKEEMRNAILDIFQSNPQSVMNYKQVSHLMGVEAAPQKLMVNSLMEDMAVDDILHEIERGRYRYNALGLIVIGTFERRFNGRNSFIPEGGGTPIFIAERNSAHAMDGDKVKVQLFAKRRGRAPEAAVIEIIEQKQATFVGKIQINRDFAFLVTEDRTLANDIFIPKDNLGNAKNGDKVIVRILEWPEQSKNPIGEVQAVLGPAGDNDAEMNAILAEFGLPYVYPQEVEEAADRLDGKITEEELARREDFRSILTFTIDPKDAKDFDDAISFRPLEDDCYEVGVHIADVSHYVTEGGIIDQEAYNRATSIYLVDRTIPMLPERLCNDLCSLRPDEEKYAYSCIFRMNDEAKVLDYRICHSVIKSDRRFAYEEAQAVIETGEGDCKEAILKLNELAQRLRKERFQNGAIAFERKEVRFEIDEKGRPLGVIVKESKEANKLIEEFMLLANRTVARHIGEETQGKRAKTFVYRIHDLPDPDKLETLSDFIRRFGYKLRTTGSNVEVSKSINSLLDNIQNKPEENLISTVAIRSMAKAIYSTDNIGHYGLAFDFYTHFTSPIRRYPDLMVHRLLTKYLSGGSSVDKNDYEEKCKHSSAMEQLAASAERASIKYKQVEFMSEHLGKVFDGVISGVTEWGLYVELKENMCEGLIPIRCLDDDYYEYDDKNFCLIGRRYRHRYSLGDAITVRVAQANLDRKQLDFEPVSEGHHHHHH,soluble
20,MSLEKKVLATVGNTEITSDYIDEIIARYPAQQQAMLASDEGKRQVLEQAIAFELMSEFAKETGLDKTEEFKDQLNKFAKELLAQMVMKKTLSSVTVTDDEAKAFYEEHKENFVELETVTAKHILVASEEEAKKVEEEIASGSITFEDAANKYSSCPSKEQGGNLGSFSKGMMVPEFEEAAFNLELGVVSAPVKTQFGYHLIKVEDKTEAKTKAFEDVKEQVVNMLIQERQQKKYLELIKELREKYGVKLAEGHHHHHH,soluble
